{"source": "patent US20260263563A1", "about": "“Method of Treatment of a Thoracolumbar Deformity in a Human Subject with Achondroplasia” (Ascendis Pharma Growth Disorders A/S, priority 2023, published 2026)", "origin": "cited, not measured here", "details": "in vivo; cited from earlier work", "note": "Positions of bridges follow the written chain, without caps; N, C: chain ends. No end group written: not given here."}
{"substance": "Vosoritide (PGQEHPNARKYKGANKKGLSKGCFGLKLDRIGSMSGLGC; disulfide 23-39)", "values": [{"measurement": "reported t½", "result": "about 28 minutes"}]}
